{"source": "patent US20140303084A1", "about": "(Biogen, published 2014)", "binders": {"B1": {"name": "compound 25 (peptide)", "peptide": "RRAPGKLQCLASYCWLFWTGIA-NH2", "modifications": "cysteine pairing not given here"}, "B2": {"name": "compound 2 (peptide)", "peptide": "[dK][NMeL]TCLASYCWLF-NH2", "modifications": "cysteine pairing not given here"}, "B3": {"name": "compound 19 (peptide)", "peptide": "RRAPGKLTCLASYCWLFK([PEG2′-Biotin])TGIA-NH2", "modifications": "not fully specified (bridges); printed as RRAPGKLTCLASYCWLFK(PEG2-Biotin)TGIA; cysteine pairing not given here", "notes": "also called compound 4 biotinylated at K18"}, "B4": {"name": "compound 1 (peptide)", "peptide": "KLTCLASYCWLF-NH2", "modifications": "not fully specified (bridges); cysteine pairing not given here"}, "B5": {"name": "LLHAQKLSCLASYCWVFDAEWD (peptide)", "peptide": "LLHAQKLSCLASYCWVFDAEWD"}, "B6": {"name": "SGGSGKLTCLASYCWPFGSQVR (peptide)", "peptide": "SGGSGKLTCLASYCWPFGSQVR"}, "B7": {"name": "QDGVEKLTCLASYCWRFGDHGA (peptide)", "peptide": "QDGVEKLTCLASYCWRFGDHGA"}, "B8": {"name": "DAGPNKLRCLASYCQLFGGGHA (peptide)", "peptide": "DAGPNKLRCLASYCQLFGGGHA"}, "B9": {"name": "TLLYQNRTCLASYCWLFDKRSV (peptide)", "peptide": "TLLYQNRTCLASYCWLFDKRSV"}}, "key": {"human Factor IXa [1]": {"biological_target": "T1, human Factor IXa (human, UniProt P00740 47-191; P00740 227-461)", "assay": "cell-based or functional assay"}, "human Factor VIIa": {"biological_target": "T2, human Factor VIIa (human, UniProt P08709 61-466)", "T2 construct": "Bought protein; also called hFVIIa; FVIIa", "T2 sequence (looked up)": "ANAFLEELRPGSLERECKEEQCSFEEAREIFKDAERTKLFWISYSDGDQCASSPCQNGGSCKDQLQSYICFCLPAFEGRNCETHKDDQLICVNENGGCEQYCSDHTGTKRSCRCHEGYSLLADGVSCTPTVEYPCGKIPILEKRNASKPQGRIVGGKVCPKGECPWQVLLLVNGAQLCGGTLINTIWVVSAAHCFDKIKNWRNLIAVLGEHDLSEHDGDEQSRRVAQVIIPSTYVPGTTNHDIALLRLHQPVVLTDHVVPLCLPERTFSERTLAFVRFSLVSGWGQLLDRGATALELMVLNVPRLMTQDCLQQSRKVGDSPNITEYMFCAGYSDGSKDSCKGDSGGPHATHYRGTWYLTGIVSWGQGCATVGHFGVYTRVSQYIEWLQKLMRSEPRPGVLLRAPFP", "assay": "BLI (ForteBio Octet 384), peptide on streptavidin probes, soluble hFVIIa", "procedure": "(§1) Briefly, a layer of molecules attached to the tip of an optical fiber creates an interference pattern upon incident white light. The combination of the optical fiber and biocompatible surface creates the physical conditions needed for BLI, allowing the detection of changes in mass accumulation on the tip of the probe. This is measured by alterations in the spectral shift (nm). These changes are recorded as a binding profile, a continuous, real-time monitoring of the association and dissociation of interacting molecules.\n(§2) Control SA probes were loaded with 4M guanidinium chloride in the absence of biotinylated peptide for reference subtraction. After loading, probes were incubated in HBS-P for 300 sec to establish a new baseline. […] This is described as the dissociation phase. The equilibrium KD was derived from the non-linear regression analysis of the subtracted data (Reaction probe minus Reference probe) using a 1:1 binding model with ForteBio software (Version 7.0)."}, "human Factor IXa [2]": {"biological_target": "T1, human Factor IXa", "assay": "cell-based or functional assay", "remark": "listed apart in the source"}, "human Factor IXa [3]": {"biological_target": "T1, human Factor IXa", "assay": "BLI (ForteBio Octet 384), biotinylated peptide on streptavidin probes, soluble hFIXa 0-2000 nM, steady state, 1:1 model", "procedure": "as §1, §2"}, "human Factor IXa [4]": {"biological_target": "T1, human Factor IXa", "assay": "cell-based or functional assay", "remark": "listed apart in the source"}}, "note": "Square brackets hold non-standard residues; d marks the D form. Primed or numbered codes have the meaning given here. Side chains are listed from the residue outwards. Ends that are not written are not given here. * marks the point of attachment. Biotin = O=C1N[C@H]2[C@H](CS[C@H]2CCCCC(=O)*)N1; NMeL = CN[C@@H](CC(C)C)C(=O)O; PEG2′ = PEG2 spacer unit", "data": [{"binder": "B1", "values": [{"measurement": "EC50 [µM], FXa generation assay with hFIXa", "setting": "human Factor IXa [1]", "result": "< 0.5", "unit": "µM"}, {"measurement": "Kd", "setting": "human Factor VIIa", "result": 250, "unit": "nM"}]}, {"binder": "B2", "values": [{"measurement": "EC50 [µM], FXa generation assay", "setting": "human Factor IXa [1]", "result": "< 0.5", "unit": "µM"}, {"measurement": "EC50 [µM], FXa generation assay with hFIXa", "setting": "human Factor IXa [1]", "result": "< 0.5", "unit": "µM"}, {"measurement": "EC50 (µM), FXa generation assay, without phospholipids", "setting": "human Factor IXa [2]", "result": 0.2, "unit": "µM"}]}, {"binder": "B3", "values": [{"measurement": "Kd", "setting": "human Factor IXa [3]", "result": 120, "unit": "nM"}, {"measurement": "EC50 [µM], FXa generation assay with hFIXa", "setting": "human Factor IXa [1]", "result": "< 0.5", "unit": "µM"}]}, {"binder": "B4", "values": [{"measurement": "EC50, FXa generation assay with human FIXa", "setting": "human Factor IXa [4]", "result": 300, "unit": "nM"}, {"measurement": "EC50 [µM], FXa generation assay with hFIXa", "setting": "human Factor IXa [1]", "result": "< 0.5", "unit": "µM"}, {"measurement": "EC50 (µM), FXa generation assay, without phospholipids", "setting": "human Factor IXa [2]", "result": 0.4, "unit": "µM"}]}, {"binder": "B5", "values": [{"measurement": "EC50 [µM], FXa generation assay", "setting": "human Factor IXa [1]", "result": "< 0.5", "unit": "µM"}]}, {"binder": "B6", "values": [{"measurement": "EC50 [µM], FXa generation assay", "setting": "human Factor IXa [1]", "result": "> 50", "unit": "µM"}]}, {"binder": "B7", "values": [{"measurement": "EC50 [µM], FXa generation assay", "setting": "human Factor IXa [1]", "result": "> 50", "unit": "µM"}]}, {"binder": "B8", "values": [{"measurement": "EC50 [µM], FXa generation assay", "setting": "human Factor IXa [1]", "result": "> 50", "unit": "µM"}]}, {"binder": "B9", "values": [{"measurement": "EC50 [µM], FXa generation assay", "setting": "human Factor IXa [1]", "result": "> 50", "unit": "µM"}]}]}
